Results: the supplement of paper PMC10126150
± gives the standard deviation of the averaged measurements.

System: ATP
Assay: switch fluorescence ratio, 500 uM ATP over buffer (Cy3 cluster intensity, sum of 5 cycles each) (fold (ratio)); higher = stronger signal-on switching upon ATP binding; sequences stand for … in TCGTCGGCAGCGTCAGATGTGTATAAGAGACAGTTTTTTTTTTTTTTTTTTTTTTTTT…TC
Settings: aptamer strand: ATP DNA aptamer (quencher-CACCTGGGGGAGTATTGCGGAGGAAGG + anchor), 100 nM annealed; ATP concentration: 500 uM
Outline: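 After annealing to 100 nM quencher-labelled ATP aptamer, Cy3-labelled switching-strand clusters on a modified Illumina MiSeq flow-cell were imaged in selection buffer. A second image followed after 15 min with 500 uM ATP at 22 °C, and five such buffer/ATP cycles were done, each separated by NaOH stripping and re-annealing. The fluorescence ratio, averaged per switch-domain sequence, is summed target-cycle over summed buffer-cycle Cy3 intensity per cluster, with clusters outside 100-1000 RFU excluded.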
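Further: ATP exposure 15 min at 22 °C before imaging.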

TAAAGGATCC and TAAAGGATTC are within error of each other in switch fluorescence ratio: 1.02 ± 0.041 for the first, 0.979 ± 0.045 for the second.

TAAAGGCGCG and TAAAGGCGGT are within error of each other in switch fluorescence ratio: 0.985 ± 0.012 for the first, 0.983 ± 0.042 for the second.

TAAAGGGAAA and TAAAGGGAGT are within error of each other in switch fluorescence ratio: 1.26 ± 0.37 for the first, 1 ± 0.024 for the second.

TAAAGGGATT and TAAAGGGGCT are within error of each other in switch fluorescence ratio: 0.994 ± 0.032 for the first, 1.04 ± 0.049 for the second.

TAAAGGGGGA and TAAAGGGTAT are within error of each other in switch fluorescence ratio: 0.983 ± 0.039 for the first, 0.988 ± 0.032 for the second.

Compared with TAAAGGTTAC, TAAAGTGTGC is lower in switch fluorescence ratio: 1.03 ± 0.028 for the first, 0.9727 ± 0.0042 for the second.

TAAAGTGTGG and TAAATAGCTT are within error of each other in switch fluorescence ratio: 0.992 ± 0.027 for the first, 1.08 ± 0.17 for the second.

TAAATAGGGA and TAAATATCGT are within error of each other in switch fluorescence ratio: 1.01 ± 0.03 for the first, 1 ± 0.013 for the second.

TAAATATTGT and TAAATATTTA are within error of each other in switch fluorescence ratio: 1.01 ± 0.016 for the first, 0.976 ± 0.05 for the second.

TAAATCGGGA and TAAATCGGGT are within error of each other in switch fluorescence ratio: 0.9928 ± 0.0037 for the first, 1 ± 0.013 for the second.

TAAATGAAGG and TAAATGCGCC are within error of each other in switch fluorescence ratio: 1.04 ± 0.048 for the first, 1.09 ± 0.022 for the second.

TAAATGGAA and TAAATGGGTT are the same in switch fluorescence ratio: 1 ± 0.024 for the first, 1 ± 0.027 for the second.

TAAATGGTTC and TAAATGTGTA are within error of each other in switch fluorescence ratio: 0.969 ± 0.027 for the first, 1.01 ± 0.036 for the second.

TAAATTAAGT and TAAATTATGG are within error of each other in switch fluorescence ratio: 1.03 ± 0.029 for the first, 0.996 ± 0.021 for the second.

TAAATTATTT and TAAATTTAGG are within error of each other in switch fluorescence ratio: 0.999 ± 0.023 for the first, 0.989 ± 0.02 for the second.

TAAATTTTGT and TAACAATCGC are within error of each other in switch fluorescence ratio: 1.02 ± 0.039 for the first, 1.06 ± 0.038 for the second.

Going from TAACACCGGC to TAACACGAAT, the switch fluorescence ratio falls from 1.06 ± 0.025 to 1.01 ± 0.0083.

TAACACGGGA and TAACATCTTT are within error of each other in switch fluorescence ratio: 1.037 ± 0.003 for the first, 1.03 ± 0.013 for the second.

Going from TAACATGAAG to TAACCCCGCT, the switch fluorescence ratio rises from 1.004 ± 0.0073 to 1.42 ± 0.25.

TAACCGGTGC and TAACCTATCT are within error of each other in switch fluorescence ratio: 1.065 ± 0.01 for the first, 1.04 ± 0.033 for the second.

Compared with TAACCTGGAG, TAACCTTTAA is lower in switch fluorescence ratio: 1.18 ± 0.028 for the first, 1.04 ± 0.02 for the second.

Compared with TAACGATGGG, TAACGCATCG is lower in switch fluorescence ratio: 1.014 ± 0.01 for the first, 0.9887 ± 0.0012 for the second.

TAACGGCGGT and TAACGGGAAT are within error of each other in switch fluorescence ratio: 0.978 ± 0.021 for the first, 0.99 ± 0.02 for the second.

TAACGGGGCG and TAACGGGGGT are within error of each other in switch fluorescence ratio: 1.01 ± 0.049 for the first, 1.02 ± 0.062 for the second.

TAACGGGGTA and TAACGTTTTC are within error of each other in switch fluorescence ratio: 1.01 ± 0.02 for the first, 0.983 ± 0.06 for the second.

First: TAACGTTTTT
Second: TAACTAATAA
The switch fluorescence ratio of the first is higher: 1.1 ± 0.024 for the first, 1.01 ± 0.018 for the second.

TAACTAATTT and TAACTCTTTT are within error of each other in switch fluorescence ratio: 1.03 ± 0.017 for the first, 0.978 ± 0.044 for the second.

TAACTGGCTT and TAACTGTCTT are within error of each other in switch fluorescence ratio: 1.01 ± 0.036 for the first, 0.966 ± 0.013 for the second.

First: TAAGAAAAAT
Second: TAAGAAAGGG
The switch fluorescence ratio of the first is higher: 1.062 ± 0.0081 for the first, 0.9572 ± 0.0095 for the second.

TAAGAAGTCG and TAAGAGGA are within error of each other in switch fluorescence ratio: 0.9751 ± 0.0023 for the first, 0.991 ± 0.015 for the second.

TAAGAGGCGG and TAAGATAAAA are within error of each other in switch fluorescence ratio: 1.01 ± 0.052 for the first, 1.02 ± 0.017 for the second.

TAAGATGATC and TAAGATGTAA are within error of each other in switch fluorescence ratio: 0.988 ± 0.048 for the first, 1.03 ± 0.011 for the second.

Compared with TAAGCAAATG, TAAGCAGGGC is higher in switch fluorescence ratio: 1.038 ± 0.0072 for the first, 1.068 ± 0.0043 for the second.

First: TAAGCAGTTT
Second: TAAGCGGGGT
The switch fluorescence ratio of the first is higher: 1.038 ± 0.0027 for the first, 1.012 ± 0.008 for the second.

TAAGCGGTTG and TAAGCTCGTG are within error of each other in switch fluorescence ratio: 0.989 ± 0.016 for the first, 0.97 ± 0.019 for the second.

TAAGCTGGCT and TAAGCTGTGG are the same in switch fluorescence ratio: 1.025 ± 0.0092 for the first, 1.02 ± 0.028 for the second.

TAAGGAGCGG and TAAGGAGTTC are within error of each other in switch fluorescence ratio: 0.976 ± 0.013 for the first, 0.965 ± 0.021 for the second.

TAAGGCGAGT and TAAGGGAACC are within error of each other in switch fluorescence ratio: 1.03 ± 0.052 for the first, 1.01 ± 0.044 for the second.

TAAGGGAATC and TAAGGGAGTG are within error of each other in switch fluorescence ratio: 1.2 ± 0.31 for the first, 0.976 ± 0.031 for the second.

TAAGGGCGCG and TAAGGGCTGA are within error of each other in switch fluorescence ratio: 1.03 ± 0.035 for the first, 1.01 ± 0.011 for the second.

First: TAAGGGGGAT
Second: TAAGGGGGGC
The switch fluorescence ratio of the first is higher: 1.021 ± 0.0082 for the first, 0.98 ± 0.029 for the second.

TAAGGGGTAT and TAAGGGGTGG are within error of each other in switch fluorescence ratio: 0.985 ± 0.032 for the first, 0.969 ± 0.028 for the second.

TAAGGGTGTG and TAAGGGTTTC are within error of each other in switch fluorescence ratio: 1 ± 0.023 for the first, 1.02 ± 0.066 for the second.

TAAGGTCATA and TAAGGTCCGA are within error of each other in switch fluorescence ratio: 1.034 ± 0.0067 for the first, 1.021 ± 0.0077 for the second.

Compared with TAAGGTCGGT, TAAGGTGGCC is higher in switch fluorescence ratio: 0.966 ± 0.018 for the first, 1.01 ± 0.013 for the second.

TAAGGTGGCT and TAAGGTGGGG are within error of each other in switch fluorescence ratio: 1.01 ± 0.043 for the first, 0.987 ± 0.021 for the second.

TAAGGTGTGA and TAAGGTTGGG are within error of each other in switch fluorescence ratio: 1.02 ± 0.038 for the first, 0.993 ± 0.021 for the second.

Going from TAAGGTTTGT to TAAGTAGGGC, the switch fluorescence ratio rises from 0.988 ± 0.021 to 1.2 ± 0.18.

TAAGTATGTC and TAAGTCATGG are within error of each other in switch fluorescence ratio: 0.995 ± 0.01 for the first, 0.9922 ± 0.0078 for the second.

TAAGTCATTG and TAAGTCGGAA are within error of each other in switch fluorescence ratio: 0.985 ± 0.049 for the first, 0.996 ± 0.022 for the second.

First: TAAGTGACCG
Second: TAAGTGGAC
The switch fluorescence ratio of the first is higher: 1.07 ± 0.018 for the first, 1.039 ± 0.0089 for the second.

TAAGTGGG and TAAGTGTGTG are within error of each other in switch fluorescence ratio: 0.9621 ± 0.0055 for the first, 0.975 ± 0.021 for the second.

TAAGTGTTTT and TAAGTTAGGG are within error of each other in switch fluorescence ratio: 0.994 ± 0.023 for the first, 0.972 ± 0.029 for the second.

Compared with TAAGTTCCTG, TAAGTTCGCA is higher in switch fluorescence ratio: 1 ± 0.026 for the first, 1.05 ± 0.024 for the second.

TAAGTTGGGT and TAAGTTTGTT are within error of each other in switch fluorescence ratio: 0.994 ± 0.042 for the first, 0.997 ± 0.011 for the second.

TAAGTTTTTA and TAATAAAGTT are within error of each other in switch fluorescence ratio: 1.03 ± 0.023 for the first, 1.02 ± 0.018 for the second.

TAATAACATG and TAATAAGGTG are within error of each other in switch fluorescence ratio: 0.9691 ± 0.0038 for the first, 1.13 ± 0.23 for the second.

TAATAATGGG and TAATAATTGT are the same in switch fluorescence ratio: 1.02 ± 0.042 for the first, 1.018 ± 0.0078 for the second.

TAATAGGGAT and TAATAGGGCA are within error of each other in switch fluorescence ratio: 0.98 ± 0.019 for the first, 1.002 ± 0.007 for the second.

TAATAGGGCG and TAATATAAAC are within error of each other in switch fluorescence ratio: 1.01 ± 0.076 for the first, 1.002 ± 0.0078 for the second.

TAATATGGTT and TAATATTGGG are within error of each other in switch fluorescence ratio: 1.03 ± 0.055 for the first, 0.989 ± 0.029 for the second.

First: TAATCAGGTA
Second: TAATCAGTGC
The switch fluorescence ratio of the first is higher: 1.1 ± 0.02 for the first, 0.998 ± 0.068 for the second.

TAATCATTGG and TAATCCTGTA are within error of each other in switch fluorescence ratio: 1.01 ± 0.065 for the first, 0.9994 ± 0.003 for the second.

First: TAATCGAGGG
Second: TAATCTGGCG
The switch fluorescence ratio of the first is lower: 0.9831 ± 0.0091 for the first, 1.026 ± 0.0054 for the second.

TAATCTTAGG and TAATCTTTTT are within error of each other in switch fluorescence ratio: 0.9838 ± 0.0079 for the first, 1.01 ± 0.021 for the second.

Compared with TAATGAAGCG, TAATGCAATT is higher in switch fluorescence ratio: 0.993 ± 0.018 for the first, 1.018 ± 0.0064 for the second.

TAATGCCTGC and TAATGCGGTT are within error of each other in switch fluorescence ratio: 1 ± 0.093 for the first, 1.016 ± 0.004 for the second.

TAATGCTGTT and TAATGGAAGG are within error of each other in switch fluorescence ratio: 0.997 ± 0.049 for the first, 1 ± 0.024 for the second.

TAATGGAGGC and TAATGGATGG are within error of each other in switch fluorescence ratio: 1.05 ± 0.13 for the first, 0.966 ± 0.019 for the second.

TAATGGGGGA and TAATGGGGGG are within error of each other in switch fluorescence ratio: 1.01 ± 0.016 for the first, 0.989 ± 0.037 for the second.

First: TAATGTATGA
Second: TAATGTGTCG
The switch fluorescence ratio of the first is lower: 0.972 ± 0.04 for the first, 1.021 ± 0.0042 for the second.

First: TAATGTTTCG
Second: TAATGTTTTG
The switch fluorescence ratio of the first is lower: 0.978 ± 0.013 for the first, 1.01 ± 0.018 for the second.

TAATTAGAGG and TAATTAGCGC are within error of each other in switch fluorescence ratio: 1.01 ± 0.027 for the first, 1.03 ± 0.016 for the second.

TAATTAGCGG and TAATTAGGGA are within error of each other in switch fluorescence ratio: 1.01 ± 0.018 for the first, 0.986 ± 0.044 for the second.

TAATTCAATG and TAATTGCTCG are within error of each other in switch fluorescence ratio: 0.997 ± 0.066 for the first, 1.062 ± 0.0041 for the second.

TAATTGGTGT and TAATTGTGTG are within error of each other in switch fluorescence ratio: 1.02 ± 0.043 for the first, 1 ± 0.038 for the second.

In the case of TAATTTAAAA, the switch fluorescence ratio is reported as 1.05 ± 0.12.
